From patent US20240325555A1 (LANOVA MEDICINES, published 2024)
Read-outs that look alike come from different tables or passages of the source.

Key:
[1] = target: T1, human LIV-1 (human, UniProt Q13433 29-755); assay: cell-based or functional assay
T1 sequence (looked up): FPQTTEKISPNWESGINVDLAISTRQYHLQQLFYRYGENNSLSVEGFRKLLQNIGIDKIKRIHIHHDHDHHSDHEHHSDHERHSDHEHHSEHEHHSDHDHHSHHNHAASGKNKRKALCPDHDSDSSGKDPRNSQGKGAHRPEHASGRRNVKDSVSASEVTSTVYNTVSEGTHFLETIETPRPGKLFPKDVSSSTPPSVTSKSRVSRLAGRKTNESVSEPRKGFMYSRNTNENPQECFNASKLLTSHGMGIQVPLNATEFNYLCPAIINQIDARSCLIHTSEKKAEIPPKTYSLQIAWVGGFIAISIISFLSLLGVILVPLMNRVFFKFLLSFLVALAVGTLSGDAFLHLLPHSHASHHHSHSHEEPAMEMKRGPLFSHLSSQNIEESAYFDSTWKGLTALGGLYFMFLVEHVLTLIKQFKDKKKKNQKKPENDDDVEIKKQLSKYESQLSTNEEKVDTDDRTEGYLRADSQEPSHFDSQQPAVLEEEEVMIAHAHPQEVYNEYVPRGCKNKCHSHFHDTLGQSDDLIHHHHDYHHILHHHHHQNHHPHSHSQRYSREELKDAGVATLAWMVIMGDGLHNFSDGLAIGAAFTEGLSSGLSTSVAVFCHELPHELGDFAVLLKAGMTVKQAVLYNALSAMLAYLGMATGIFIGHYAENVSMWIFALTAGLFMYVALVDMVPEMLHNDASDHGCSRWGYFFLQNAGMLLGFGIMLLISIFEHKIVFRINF

[2] = target: T1, human LIV-1; assay: FACS, HEK293/H_LIV-1 cells
How it was run: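 HEK293 cells expressing human LIV-1 incubated with humanized antibodies (from 100 nM, 6-fold dilutions, 8 points) at 4 °C for 60 min. Bound antibody detected with a fluorescent secondary antibody (4 °C, 30 min) by flow cytometry.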

[3] = target: T1, human LIV-1; assay: FACS, HEK293/H_LIV-1 cells; remark: listed apart in the source
Protocol: (§1) Cell based binding of ADC and naked of ADC on human LIV-1 expressing cells were assessed using flow cytometry. Briefly, HEK293/H_LIV-1, both low- and high-expressing H-LIV1-positive cell lines were incubated with ADC and naked of ADC (from 100 nM, 6 folds dilution, 8 points), respectively. After incubation at 4° C. for 60 minutes, the cells were washed with FACS buffer twice, then stained with fluorescent conjugated secondary antibody at 4° C. for 30 minutes. After that the cells were washed twice and analyzed by flow cytometry.

[4] = target: T2, rat LIV-1 (rat, UniProt Q4V887 21-741); assay: FACS, HEK293/Rat_LIV-1 cells
T2 construct: whole, on cells
T2 sequence (looked up): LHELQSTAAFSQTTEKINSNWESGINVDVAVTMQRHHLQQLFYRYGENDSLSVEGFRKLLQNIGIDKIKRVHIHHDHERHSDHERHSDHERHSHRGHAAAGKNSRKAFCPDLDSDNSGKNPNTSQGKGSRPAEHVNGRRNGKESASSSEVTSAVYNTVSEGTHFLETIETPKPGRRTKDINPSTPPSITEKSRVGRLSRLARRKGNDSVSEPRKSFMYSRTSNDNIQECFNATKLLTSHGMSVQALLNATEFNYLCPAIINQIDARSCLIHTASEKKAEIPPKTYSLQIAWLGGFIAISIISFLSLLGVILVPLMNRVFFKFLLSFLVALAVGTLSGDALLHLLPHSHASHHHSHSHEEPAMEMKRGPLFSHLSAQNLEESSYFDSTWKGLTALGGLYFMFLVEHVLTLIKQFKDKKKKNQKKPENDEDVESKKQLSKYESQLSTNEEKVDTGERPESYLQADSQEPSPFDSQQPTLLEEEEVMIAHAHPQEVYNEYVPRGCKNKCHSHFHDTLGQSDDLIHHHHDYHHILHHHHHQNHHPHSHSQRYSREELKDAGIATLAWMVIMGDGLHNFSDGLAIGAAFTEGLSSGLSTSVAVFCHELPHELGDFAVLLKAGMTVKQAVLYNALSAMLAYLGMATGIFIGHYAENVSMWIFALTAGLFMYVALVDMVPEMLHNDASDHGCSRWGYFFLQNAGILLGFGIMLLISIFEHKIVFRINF
Protocol: (§2) Humanized antibodies 5D6B10.z7, 124H4D11.p2.z4 and 290F10G10.p1.z2 were selected for further testing. In this example, FACS cross binding of these selected antibodies to LIV-1 of different species were assessed using flow cytometry.
(§3) Cell based binding of optimal leads to different species LIV-1 expressing cells were assessed using flow cytometry. Briefly, the cells were incubated with optimal leads (from 100 nM, 6 folds dilution, 8 points). After incubation at 4° C. for 60 minutes, the cells were washed with 2% FBS/PBS buffer twice, then stained with fluorescent conjugated secondary antibody at 4° C. for 30 minutes. After that the cells were washed twice and resuspended in 80 μL of 2% FBS/PBS buffer. Fluorescent signal of binding was detected using Agilent. The EC50 was calculated using the GraphPad Software (LaJolla, CA).

[5] = target: rhesus LIV-1 (rhesus, UniProt H9FSJ2 30-735); assay: FACS, HEK293/Rhe_LIV-1 cells
Protocol: as §2, §3

[6] = target: T1, human LIV-1; assay: FACS, BT20/H_LIV-1 Low cells
Protocol: as §1

[7] = target: T3, cynomolgus LIV-1 (cynomolgus, UniProt A0A2K5WH46 30-741); assay: FACS, HEK293/Cyno_LIV-1 cells
[8] = target: T3, cynomolgus LIV-1; assay: FACS, HEK293/Cyno_LIV-1 cells; remark: listed apart in the source
Protocol: as §3

[9] = target: T1, human LIV-1; assay: FACS, BT20/H_LIV-1 High cells
Protocol: as §1

[10] = target: T4, mouse LIV-1 (mouse, UniProt Q8C145 21-765); assay: FACS, HEK293/Mouse_LIV-1 cells
T4 construct: whole, on cells
T4 sequence (looked up): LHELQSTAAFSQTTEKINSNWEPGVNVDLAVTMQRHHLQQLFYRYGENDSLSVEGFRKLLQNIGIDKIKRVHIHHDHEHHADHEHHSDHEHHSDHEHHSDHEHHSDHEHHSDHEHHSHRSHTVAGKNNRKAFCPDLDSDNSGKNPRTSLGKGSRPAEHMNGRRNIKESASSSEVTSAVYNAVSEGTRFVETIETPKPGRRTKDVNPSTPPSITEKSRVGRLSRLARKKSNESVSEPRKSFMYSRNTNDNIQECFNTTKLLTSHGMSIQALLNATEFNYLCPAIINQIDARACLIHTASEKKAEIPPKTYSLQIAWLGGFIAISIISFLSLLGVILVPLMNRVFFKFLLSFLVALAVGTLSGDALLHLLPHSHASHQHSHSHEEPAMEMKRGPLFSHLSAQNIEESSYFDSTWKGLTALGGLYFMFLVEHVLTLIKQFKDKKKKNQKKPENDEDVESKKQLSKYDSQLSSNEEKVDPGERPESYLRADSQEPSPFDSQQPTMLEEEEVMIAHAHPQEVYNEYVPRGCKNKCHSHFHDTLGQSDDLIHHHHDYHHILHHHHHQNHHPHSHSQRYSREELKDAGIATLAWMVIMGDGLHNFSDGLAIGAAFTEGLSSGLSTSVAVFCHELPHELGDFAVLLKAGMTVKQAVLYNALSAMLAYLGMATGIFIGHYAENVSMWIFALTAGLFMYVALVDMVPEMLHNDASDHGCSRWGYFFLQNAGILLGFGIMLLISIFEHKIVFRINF
Protocol: as §2, §3

T3 sequence (A0A2K5WH46 entry or part of it): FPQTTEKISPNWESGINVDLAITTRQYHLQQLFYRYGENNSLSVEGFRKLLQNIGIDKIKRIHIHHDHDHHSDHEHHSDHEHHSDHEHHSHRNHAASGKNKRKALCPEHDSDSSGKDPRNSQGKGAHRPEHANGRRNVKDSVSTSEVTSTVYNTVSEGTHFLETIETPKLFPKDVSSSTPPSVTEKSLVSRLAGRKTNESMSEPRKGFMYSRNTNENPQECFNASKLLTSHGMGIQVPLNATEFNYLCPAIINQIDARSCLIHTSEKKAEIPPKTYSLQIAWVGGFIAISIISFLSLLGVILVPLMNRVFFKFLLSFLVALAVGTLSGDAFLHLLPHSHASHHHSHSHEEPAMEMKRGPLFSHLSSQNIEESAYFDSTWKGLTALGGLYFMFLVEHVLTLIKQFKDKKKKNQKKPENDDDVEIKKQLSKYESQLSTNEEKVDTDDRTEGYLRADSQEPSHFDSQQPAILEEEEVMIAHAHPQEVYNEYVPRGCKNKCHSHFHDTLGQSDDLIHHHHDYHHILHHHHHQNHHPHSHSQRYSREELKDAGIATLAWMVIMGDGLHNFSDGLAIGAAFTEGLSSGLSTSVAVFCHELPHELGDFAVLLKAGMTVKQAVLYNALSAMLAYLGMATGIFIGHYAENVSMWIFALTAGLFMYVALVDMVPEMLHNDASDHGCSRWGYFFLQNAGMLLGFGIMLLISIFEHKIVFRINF
Chain of rhesus LIV-1 (H9FSJ2 entry or part of it): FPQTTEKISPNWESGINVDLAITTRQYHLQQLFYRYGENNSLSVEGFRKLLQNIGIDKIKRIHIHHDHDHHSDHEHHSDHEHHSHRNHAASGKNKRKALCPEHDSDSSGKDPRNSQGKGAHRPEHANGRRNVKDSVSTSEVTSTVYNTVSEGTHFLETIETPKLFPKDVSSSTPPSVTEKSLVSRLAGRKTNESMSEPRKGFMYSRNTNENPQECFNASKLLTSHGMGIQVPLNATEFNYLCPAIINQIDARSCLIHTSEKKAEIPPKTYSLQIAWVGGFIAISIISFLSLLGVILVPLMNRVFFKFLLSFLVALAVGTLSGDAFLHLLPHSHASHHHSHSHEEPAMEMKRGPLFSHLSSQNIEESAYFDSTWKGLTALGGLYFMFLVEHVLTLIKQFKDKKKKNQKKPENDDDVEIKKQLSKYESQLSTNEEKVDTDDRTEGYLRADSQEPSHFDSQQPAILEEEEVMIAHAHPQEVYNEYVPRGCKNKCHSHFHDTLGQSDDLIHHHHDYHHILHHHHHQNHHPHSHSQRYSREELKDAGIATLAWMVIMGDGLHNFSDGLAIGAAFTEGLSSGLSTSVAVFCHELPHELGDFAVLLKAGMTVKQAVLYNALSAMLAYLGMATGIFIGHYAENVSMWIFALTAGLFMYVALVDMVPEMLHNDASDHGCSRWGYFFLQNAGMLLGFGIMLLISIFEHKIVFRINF

Internalization EC50 [1]: 5.7 nM | Internalization Top (MFI) [1]: 59100 MFI | EC50 [2]: 0.22 nM | Top (MFI) [2]: 50700 MFI | EC50 [3]: 0.69 nM | Top (MFI) [3]: 102000 MFI | Top (MFI) [4]: 255 MFI | binding result [4]: no binding (tested: 100 nM) | EC50 [5]: 0.3 nM | Top (MFI) [5]: 41000 MFI | EC50 [6]: 0.51 nM | Top (MFI) [6]: 34700 MFI | EC50 [7]: 0.19 nM | Top (MFI) [7]: 20400 MFI | EC50 [8]: 0.55 nM | Top (MFI) [8]: 13900 MFI | EC50 [9]: 1.06 nM | Top (MFI) [9]: 152000 MFI | Top (MFI) [10]: 162 MFI | binding result [10]: no binding (tested: 100 nM)
B1: 5D6B10.Z7 (antibody, V domains shown)
VH: QVQLVQSGGGVVQPGRSLRLSCTVSGFSLTTYGIHWVRQSPGKGLEWLGVIWTGGTTDYNAAFISRLTISKDNSKSTVYFQMNSLQAEDTAIYYCARGPSSYWGQGTLVTVSS
VL: EIVMTQSPATLSVSPGERATLSCKASQNVDTNVVWYQQKPGQSPRALIYSASYRYSGVPARFSGSGSGTEFTLTISSLQSEDFAVYFCQQYNNYPWTFGQGTKVEIK
